“And” between values parts separate entries of the source, which are not always exact repeats. Equal values may be shown once. Read-outs that look alike come from different tables or passages of the source.
Columns and labels:
[1] = target: HLA-A*02:01 tetramer (human); assay: peptide exchange on HLA-A*02:01 tetramer, entering peptide 20 µM, 4 h; competitor: exiting peptide ILKEKK(DNP)VHGV; capture on anti HLA-ABC beads, anti-DNP FITC, flow cytometry
[2] = target: HLA-A*24:02 tetramer (human)
[3] = target: HLA-A*24:02 tetramer (human); assay: peptide exchange on HLA-A*24:02 tetramer, competing peptide 20 µM, 4 h; competitor: exiting peptide TFQRK(DNP)PAAF; capture on anti HLA-ABC beads, anti-DNP FITC, flow cytometry
[4] = target: T1, H-2 Kb tetramer (murine), P01901
T1 chain: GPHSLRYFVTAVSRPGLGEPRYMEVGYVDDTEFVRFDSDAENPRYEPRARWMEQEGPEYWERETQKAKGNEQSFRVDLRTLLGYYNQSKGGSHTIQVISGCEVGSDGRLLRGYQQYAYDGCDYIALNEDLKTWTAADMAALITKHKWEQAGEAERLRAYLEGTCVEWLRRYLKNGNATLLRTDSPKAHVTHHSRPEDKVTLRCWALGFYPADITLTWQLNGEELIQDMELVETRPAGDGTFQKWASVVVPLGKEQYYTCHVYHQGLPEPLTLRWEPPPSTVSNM

[5] = target: HLA-A*02:01 tetramer (human)
[6] = target: T1, H-2 Kb tetramer (murine), P01901; assay: peptide exchange on H-2 Kb BV421 tetramer, reference peptide 2 µM, glycyl-methionine, 4 h; competitor: exiting peptide TFQRK(DNP)PAAF; bead sandwich immunoassay, flow cytometry
[7] = target: T1, H-2 Kb tetramer (murine), P01901; assay: peptide exchange on H-2 Kb PE tetramer, reference peptide 20 µM, glycyl-methionine, 4 h; bead sandwich immunoassay, flow cytometry
[8] = target: T1, H-2 Kb tetramer (murine), P01901; assay: peptide exchange on H-2 Kb PE tetramer, reference peptide 2 µM, glycyl-methionine, 4 h; competitor: exiting peptide TFQRK(DNP)PAAF; bead sandwich immunoassay, flow cytometry
[9] = target: T1, H-2 Kb tetramer (murine), P01901; assay: peptide exchange on H-2 Kb APC tetramer, reference peptide 20 µM, glycyl-methionine, 4 h; competitor: exiting peptide TFQRK(DNP)PAAF; bead sandwich immunoassay, flow cytometry
[10] = target: T1, H-2 Kb tetramer (murine), P01901; assay: peptide exchange on H-2 Kb BV421 tetramer, reference peptide 20 µM, glycyl-methionine, 4 h; competitor: exiting peptide TFQRK(DNP)PAAF; bead sandwich immunoassay, flow cytometry
[11] = target: T1, H-2 Kb tetramer (murine), P01901; assay: peptide exchange on H-2 Kb APC tetramer, reference peptide 2 µM, glycyl-methionine, 4 h; competitor: exiting peptide TFQRK(DNP)PAAF; bead sandwich immunoassay, flow cytometry
[12] = remark: other sources report otherwise

Binder: YLLEFTPPV (modifications not checked) [HLA-A*02:01 Reference peptide, … (SEQ ID NO: 5)]
- % peptide exchange [1]: 91.9%

Binder: RIKDFLRNL (modifications not checked) [… (SEQ ID NO: 42)]
- % peptide exchange [1]: 34%

Binder: RYMRWTYRF (modifications not checked) [… (SEQ ID NO: 31)]
- % peptide exchange [2]: 101%

Binder: CSLWNGPHL (modifications not checked) [… (SEQ ID NO: 44)]
- % peptide exchange [1]: 55.2%

Binder: ALALEVGEL (modifications not checked) [… (SEQ ID NO: 46)]
- % peptide exchange [1]: 85.1%

Binder: LTLGEFLKL (modifications not checked) [… (SEQ ID NO: 39)]
- % peptide exchange [1]: 43.6%

Binder: FLSELTQQL (modifications not checked) [… (SEQ ID NO: 21)]
- % peptide exchange [3]: 23.6%

Binder: LNMADKKET (modifications not checked) [… (SEQ ID NO: 28)]
- % peptide exchange [2]: 10.3%

Binder: GYSLKLSKL (modifications not checked) [… (SEQ ID NO: 25)]
- % peptide exchange [2]: 37.9%

Binder: FLYDDNQRV (modifications not checked) [… (SEQ ID NO: 33)]
- % peptide exchange [1]: 91.2%

Binder: EYILSLEEL (modifications not checked) [… (SEQ ID NO: 45)]
- % peptide exchange [1]: 24.2%

Binder: SYVPSAEQI (modifications not checked) [… (SEQ ID NO: 47)]
- % peptide exchange [1]: 25%

Binder: WMHHNMDLI (modifications not checked) [… (SEQ ID NO: 37)]
- % peptide exchange [1]: 89.2%

Binder: AVLDGLLSL (modifications not checked) [… (SEQ ID NO: 34)]
- % peptide exchange [1]: 90.7%

Binder: IMQLMPFGC (modifications not checked) [… (SEQ ID NO: 40)]
- % peptide exchange [1, 12]: 40.9%

Binder: ATVQGQNLK (modifications not checked) [… (SEQ ID NO: 48)]
- % peptide exchange [1]: 27.9%

Binder: SLPPPGTRV (modifications not checked) [… (SEQ ID NO: 38)]
- % peptide exchange [1, 12]: 86.6%

Binder: RVRAYTYSK (modifications not checked) [… (SEQ ID NO: 30)]
- % peptide exchange [2]: 10.3%

Binder: GLAVVTHGL (modifications not checked) [… (SEQ ID NO: 24)]
- % peptide exchange [1]: 91%

Binder: IYSTVASSL (modifications not checked) [… (SEQ ID NO: 27)]
- % peptide exchange [2]: 101%

Binder: TFQRKPAAF (modifications not checked) [TFQRK(DNP)PAAF (SEQ ID NO: 16)]
- % peptide exchange (loss of the exiting peptide without entering peptide) [4]: 16% and 13.3% and 30.4%

Binder: GLADQLIHL (modifications not checked) [… (SEQ ID NO: 23)]
- % peptide exchange [5]: 91.4%

Binder: IRLRPGGKK (modifications not checked) [… (SEQ ID NO: 49)]
- % peptide exchange [5]: 25%

Binder: ALLAVGATK (modifications not checked) [… (SEQ ID NO: 43)]
- % peptide exchange [1]: 25.7%

Binder: AMAPRTLLL (modifications not checked) [… (SEQ ID NO: 18)]
- % peptide exchange [3]: 81.6%

Binder: CINGVCWTV (modifications not checked) [… (SEQ ID NO: 36)]
- % peptide exchange [5]: 85.3%

Binder: IMQIMPYGC (modifications not checked) [… (SEQ ID NO: 41)]
- % peptide exchange [1]: 59.9%

Binder: WMHKVPASL (modifications not checked) [… (SEQ ID NO: 35)]
- % peptide exchange [1]: 87.9%

Binder: SIYRYYGL (modifications not checked) [reference entering peptide (SIYRYYGL (SEQ ID NO: 59))]
- % peptide exchange [6]: 90.6%
- % peptide exchange [7]: 100%
- % peptide exchange [8]: 92.7%
- % peptide exchange [9]: 99.1%
- % peptide exchange [10]: 97.3%
- % peptide exchange [11]: 97.1%

From patent US12044680
